Reference: patent US20220064276A1 (SCHOLAR ROCK, published 2022)
“And” between values parts separate entries of the source, which are not always exact repeats. Equal values may be shown once. Read-outs that look alike come from different tables or passages of the source.

What was measured:
[1] = molecular target: T1, LTBP-proTGFβ1: transfected human proTGFβ1 presented by endogenous LTBP1/3 of LN229 cells (human); experiment: cell-based or functional assay
[2] = molecular target: T2, mouse LTBP1-proTGFβ1 complex (mouse, UniProt Q8CG19 339-1712; P04202 30-390); experiment: cell-based or functional assay
[3] = molecular target: T3, human LTBP1-proTGFβ1 complex (human, UniProt Q14766 347-1721; P01137 30-390); experiment: Octet BLI, IgG captured
T3 construct: Large latent complex: one presenting molecule disulfide-linked to a proTGFβ1 dimer; also called Hu LTBP1-proTGFβ1; huLTBP1 proTGFβ1
T3 sequence (Q14766 347-1721 limits assumed, chain 1 of 2): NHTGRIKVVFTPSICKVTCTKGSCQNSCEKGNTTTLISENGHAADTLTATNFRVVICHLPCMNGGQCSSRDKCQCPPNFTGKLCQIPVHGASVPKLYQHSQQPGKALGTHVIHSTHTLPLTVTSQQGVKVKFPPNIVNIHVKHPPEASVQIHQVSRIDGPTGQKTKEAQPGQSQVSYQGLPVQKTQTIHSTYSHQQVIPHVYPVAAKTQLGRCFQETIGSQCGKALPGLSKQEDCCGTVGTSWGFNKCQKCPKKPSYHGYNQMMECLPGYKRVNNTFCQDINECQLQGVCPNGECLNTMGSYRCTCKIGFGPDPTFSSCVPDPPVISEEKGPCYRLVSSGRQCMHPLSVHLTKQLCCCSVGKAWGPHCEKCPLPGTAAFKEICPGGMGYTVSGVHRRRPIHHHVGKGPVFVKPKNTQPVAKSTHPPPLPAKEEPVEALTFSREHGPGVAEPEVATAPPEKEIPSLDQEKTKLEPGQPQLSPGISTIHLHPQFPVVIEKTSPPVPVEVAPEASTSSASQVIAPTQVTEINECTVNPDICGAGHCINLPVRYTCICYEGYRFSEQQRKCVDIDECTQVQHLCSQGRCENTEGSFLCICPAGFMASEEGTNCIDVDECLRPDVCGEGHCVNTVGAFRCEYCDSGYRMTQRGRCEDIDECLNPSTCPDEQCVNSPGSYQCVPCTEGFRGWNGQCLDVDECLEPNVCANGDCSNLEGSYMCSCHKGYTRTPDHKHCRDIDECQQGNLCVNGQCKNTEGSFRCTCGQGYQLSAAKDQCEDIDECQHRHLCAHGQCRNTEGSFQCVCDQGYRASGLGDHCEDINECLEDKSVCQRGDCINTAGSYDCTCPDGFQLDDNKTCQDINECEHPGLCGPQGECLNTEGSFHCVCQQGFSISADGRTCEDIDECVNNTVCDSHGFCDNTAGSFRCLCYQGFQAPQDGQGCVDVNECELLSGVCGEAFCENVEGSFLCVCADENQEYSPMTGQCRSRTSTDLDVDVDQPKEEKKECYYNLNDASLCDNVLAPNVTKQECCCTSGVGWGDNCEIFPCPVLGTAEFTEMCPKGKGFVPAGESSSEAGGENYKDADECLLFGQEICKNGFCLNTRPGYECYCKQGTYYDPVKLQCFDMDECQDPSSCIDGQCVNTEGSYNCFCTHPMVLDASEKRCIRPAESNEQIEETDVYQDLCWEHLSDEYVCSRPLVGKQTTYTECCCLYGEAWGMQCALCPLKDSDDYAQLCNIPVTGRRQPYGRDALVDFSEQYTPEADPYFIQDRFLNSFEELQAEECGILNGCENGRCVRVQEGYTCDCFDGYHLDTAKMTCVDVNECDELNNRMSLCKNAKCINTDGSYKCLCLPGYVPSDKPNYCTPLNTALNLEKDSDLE
T3 sequence (P01137 30-390 limits assumed, chain 2 of 2): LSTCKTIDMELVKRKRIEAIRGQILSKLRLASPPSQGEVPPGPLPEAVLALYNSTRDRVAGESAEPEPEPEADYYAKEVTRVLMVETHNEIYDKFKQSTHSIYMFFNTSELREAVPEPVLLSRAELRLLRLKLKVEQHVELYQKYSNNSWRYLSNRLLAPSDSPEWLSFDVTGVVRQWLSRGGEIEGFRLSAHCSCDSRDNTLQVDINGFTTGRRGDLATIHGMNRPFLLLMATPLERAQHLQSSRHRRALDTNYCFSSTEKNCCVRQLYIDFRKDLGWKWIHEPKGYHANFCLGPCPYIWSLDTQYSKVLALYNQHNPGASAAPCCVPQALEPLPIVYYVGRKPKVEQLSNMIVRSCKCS
Description: (§1) Binding affinities of the optimized antibodies were measured by Octet against human LTBP1-proTGFβ1, human LTBP3-proTGFβ1, mouse LTBP1-proTGFβ1, mouse LTBP3-proTGFβ1, and GARP-proTGFβ1 complexes, essentially as described in Example 6. […] The antigens were allowed to associate for 3 minutes followed by a 5-minute dissociation. Kinetics buffer (ForteBio®) was used throughout the experiment, and KD was determined using a 1:1 fitting model for each antibody antigen pair.

[4] = molecular target: T4, human LTBP3-proTGFβ1 complex (human, UniProt Q9NS15 44-1303; P01137 30-390, limits assumed); experiment: Octet BLI, IgG captured
T4 construct: Exemplary entries; also called Hu LTBP3-proTGFβ1; huLTBP3 proTGFb1
Description: as §1

[5] = molecular target: T2, mouse LTBP1-proTGFβ1 complex; experiment: Octet BLI, IgG captured
Description: as §1

[6] = molecular target: T5, mouse LTBP3-proTGFβ1 complex (mouse, UniProt Q61810 41-1245; P04202 30-390, limits assumed); experiment: Octet BLI, IgG captured
T5 construct: Exemplary entries; also called Mo LTBP3-proTGFβ1; Murine LTBP3 proTGFb1
T5 sequence (Q61810 other isoform, or with tags, fused parts or gaps limits assumed, chain 1 of 2): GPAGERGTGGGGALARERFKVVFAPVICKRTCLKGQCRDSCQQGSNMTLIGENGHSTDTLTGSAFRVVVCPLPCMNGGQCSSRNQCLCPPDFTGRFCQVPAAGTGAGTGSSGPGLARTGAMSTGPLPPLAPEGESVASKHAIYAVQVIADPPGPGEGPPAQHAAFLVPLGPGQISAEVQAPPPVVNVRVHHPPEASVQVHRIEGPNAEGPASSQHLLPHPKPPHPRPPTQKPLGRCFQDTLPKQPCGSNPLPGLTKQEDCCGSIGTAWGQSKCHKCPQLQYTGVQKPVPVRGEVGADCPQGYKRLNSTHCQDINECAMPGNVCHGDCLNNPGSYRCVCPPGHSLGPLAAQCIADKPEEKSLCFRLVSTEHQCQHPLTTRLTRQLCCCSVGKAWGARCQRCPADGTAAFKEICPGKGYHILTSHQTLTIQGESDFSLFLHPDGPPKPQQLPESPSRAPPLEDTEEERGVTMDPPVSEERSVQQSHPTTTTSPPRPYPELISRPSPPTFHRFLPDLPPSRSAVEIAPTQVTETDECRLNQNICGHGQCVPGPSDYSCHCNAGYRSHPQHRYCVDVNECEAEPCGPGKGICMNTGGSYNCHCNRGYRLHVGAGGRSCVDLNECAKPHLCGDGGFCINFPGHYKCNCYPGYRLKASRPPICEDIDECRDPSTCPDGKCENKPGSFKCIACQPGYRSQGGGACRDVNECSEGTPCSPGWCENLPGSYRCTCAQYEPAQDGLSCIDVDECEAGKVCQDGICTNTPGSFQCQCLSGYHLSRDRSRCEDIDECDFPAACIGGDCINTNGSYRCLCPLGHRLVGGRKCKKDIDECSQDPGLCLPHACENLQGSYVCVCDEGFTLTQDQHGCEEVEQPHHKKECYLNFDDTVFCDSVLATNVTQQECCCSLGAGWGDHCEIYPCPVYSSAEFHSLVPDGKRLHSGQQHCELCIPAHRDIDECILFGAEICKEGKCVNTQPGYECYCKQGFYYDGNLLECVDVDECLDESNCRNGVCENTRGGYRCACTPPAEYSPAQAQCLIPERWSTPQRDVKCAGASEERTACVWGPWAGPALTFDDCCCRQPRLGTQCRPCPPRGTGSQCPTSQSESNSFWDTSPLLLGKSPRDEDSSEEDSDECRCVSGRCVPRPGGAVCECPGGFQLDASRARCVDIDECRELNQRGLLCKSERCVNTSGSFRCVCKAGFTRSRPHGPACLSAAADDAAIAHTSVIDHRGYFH
T5 sequence (P04202 30-390 limits assumed, chain 2 of 2): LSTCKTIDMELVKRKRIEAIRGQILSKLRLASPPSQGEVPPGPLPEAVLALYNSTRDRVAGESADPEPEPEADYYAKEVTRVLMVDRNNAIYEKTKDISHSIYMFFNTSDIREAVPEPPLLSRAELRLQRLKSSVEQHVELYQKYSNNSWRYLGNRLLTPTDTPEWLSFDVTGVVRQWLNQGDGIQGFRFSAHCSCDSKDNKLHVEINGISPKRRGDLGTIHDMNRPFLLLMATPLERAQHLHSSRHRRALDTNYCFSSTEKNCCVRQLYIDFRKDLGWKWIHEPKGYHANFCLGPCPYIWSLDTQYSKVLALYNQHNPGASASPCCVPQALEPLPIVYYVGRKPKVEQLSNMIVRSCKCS
Description: as §1

[7] = molecular target: T6, human GARP-proTGFβ1 complex (human, UniProt Q14392 18-627; P01137 30-390, limits assumed); experiment: Octet BLI, IgG captured
T6 construct: Exemplary entries; also called Hu GARP-proTGFβ1; huGARP proTGFb1
T6 sequence (Q14392 18-627 limits assumed, chain 1 of 2): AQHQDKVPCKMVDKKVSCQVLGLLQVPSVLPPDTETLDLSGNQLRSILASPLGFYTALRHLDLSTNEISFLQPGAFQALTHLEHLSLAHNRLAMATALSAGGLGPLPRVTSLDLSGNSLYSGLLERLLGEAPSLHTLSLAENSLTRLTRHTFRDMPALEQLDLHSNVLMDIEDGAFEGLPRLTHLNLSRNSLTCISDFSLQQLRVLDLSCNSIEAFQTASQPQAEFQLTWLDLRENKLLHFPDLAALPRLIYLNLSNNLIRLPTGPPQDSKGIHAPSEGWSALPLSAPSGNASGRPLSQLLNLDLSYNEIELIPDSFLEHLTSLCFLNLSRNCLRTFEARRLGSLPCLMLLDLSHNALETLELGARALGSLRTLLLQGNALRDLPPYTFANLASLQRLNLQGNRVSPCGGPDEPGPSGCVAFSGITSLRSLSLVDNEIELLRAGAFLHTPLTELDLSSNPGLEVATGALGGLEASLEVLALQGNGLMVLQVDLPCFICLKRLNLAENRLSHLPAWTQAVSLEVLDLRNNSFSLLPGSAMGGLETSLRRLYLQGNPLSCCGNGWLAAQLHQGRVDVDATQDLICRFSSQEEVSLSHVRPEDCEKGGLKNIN
T6 sequence (P01137 30-390 limits assumed, chain 2 of 2): as the sequence (P01137 30-390 limits assumed, chain 2 of 2) above
Description: as §1

[8] = molecular target: T6, human GARP-proTGFβ1 complex; experiment: Octet BLI, Table 10 (repeats Table 9)
Description: as §1
Table 9 presents the binding profile and affinity data for the indicated LTBP complex-specific antibodies (IgG1-agly) identified from the light chain optimization cycle 3, determined by Octet.

[9] = molecular target: T1, LTBP-proTGFβ1: transfected human …; experiment: cell-based or functional assay; remark: listed apart in the source
[10] = molecular target: T2, mouse LTBP1-proTGFβ1 complex; experiment: cell-based or functional assay; remark: listed apart in the source
[11] = molecular target: T6, human GARP-proTGFβ1 complex; experiment: Octet (bio-layer interferometry), response at 200 nM antigen; 0.1 nm cutoff designates meaningful binding
Description: This experiment was performed at 200, 100, 50, and 25 nM human GARP proTGFb1 and human LTBP1 proTGFbl. […] Surface plasmon resonance (SPR)-based assays

[12] = molecular target: T1, LTBP-proTGFβ1: transfected human …; experiment: cell-based or functional assay; remark: listed apart in the source
[13] = molecular target: T2, mouse LTBP1-proTGFβ1 complex; experiment: cell-based or functional assay; remark: listed apart in the source

T1 sequence (P01137 30-390): as the sequence (P01137 30-390 limits assumed, chain 2 of 2) above

Row | IC50, endogenous hLTBP assay (CAGA12 luciferase) [1] | IC50, mLTBP1 assay (CAGA12 luciferase) [2] [nM] | Kd [3] [nM] | koff [3] [s⁻¹] | kon [3] [M⁻¹ s⁻¹] | Kd [4] [nM] | koff [4] [s⁻¹] | kon [4] [M⁻¹ s⁻¹] | Kd [5] [nM] | Kd [6] [nM] | Kd [7] [nM] | Kd [8] [nM] | IC50, endogenous hLTBP assay (CAGA12 luciferase) [9] [nM] | IC50, mLTBP1 assay (CAGA12 luciferase) [10] [nM] | binding result [11] | IC50, endogenous hLTBP assay (CAGA12 luciferase) [12] [nM] | IC50, mLTBP1 assay (CAGA12 luciferase) [13] [nM] | Binder
1 | – | – | 0.357 | 0.000117 | 327000 | 0.145 | 7.26e-05 | 502000 | 0.391 | 0.331 | 8.42 | 8.42 | – | – | – | – | – | SR-AB38 (antibody, IgG1, V domains shown, Cycle 3, lineage SR-AB22) VH: QVQLVESGGGVVQPGRSLRLSCAASGFTFRSYVMHWVRQAPGKGLEWVAVISHEGSLKYYADSVKGRFTISRDNSKNTLYLQMNSLRAEDTAVYYCAVPRIAARRGGFGYWGQGTLVTVSS VL: NFMLTQPHSVSESPGKTVTISCTRSSGSIDNNYVQWYQQRPGSSPTTVIYEDFIRPSGVPDRFSGSIDSSSNSASLTISGLKTEDEADYYCQSYDDDLQGVVFGGGTKLTVL
2 | 0.909 nM | 0.423 | 0.231 | 6e-05 | 259000 | 0.179 | 6.68e-05 | 372000 | 0.417 | 0.45 | 73.5 | 73.5 | – | – | – | – | – | SR-AB34 (antibody, IgG1, V domains shown, Cycle 3, lineage SR-AB22) VH: QVQLVESGGGVVQPGRSLRLSCAASGFTFRSYVMHWVRQAPGKGLEWVAVISHEGSLKYYADSVKGRFTISRDNSKNTLYLQMNSLRAEDTAVYYCAVPRIAARRGGFGYWGQGTLVTVSS VL: NFMLTQPHSVSESPGKTVTISCTRSSGNIDNNYVQWYQQRPGSSPTTVIYEDNQRPSGVPDRFSGSIDSSSNSASLTISGLKTEDEADYYCQSYDYDAQGVVFGGGTKLTVL
3 | – | – | 0.193 | 6e-05 | 310000 | 0.122 | 6e-05 | 491000 | 0.193 | 0.269 | 195 | 195 | 2.25 | 0.264 | – | – | – | SR-AB45 (antibody, IgG1, V domains shown, Cycle 3, lineage SR-AB23) VH: QVQLVESGGGVVQPGRSLRLSCAASGFTFRSYVMHWVRQAPGKGLEWVAVISHEGSLKYYADSVKGRFTISRDNSKNTLYLQMNSLRAEDTAVYYCARPRIAARRGGFGYWGQGTLVTVSS VL: NFMLTQPHSVSESPGKTVTISCTRSSGAIDDNYVQWYQQRPGSSPTTVIYEDFQRPSGVPDRFSGSIDSSSNSASLTISGLKTEDEADYYCQSYDDDLQGVVFGGGTKLTVL
4 | – | – | 0.611 | 7.24e-05 | 118000 | 0.494 | 7.84e-05 | 159000 | 1.09 | 2 | – | – | – | – | – | 1.78 | 0.207 | SR-AB63 (antibody, IgG1, V domains shown, Cycle 3, lineage SR-AB26) VH: QLQLQESGPGLVKPSETLSLTCTVSGGSIRSSSYYWGWIRQPPGKGLEWIGSISYSATTYYNPSLKSRVTISVDTSKNQFSLKLSSVTAADTAVYYCAGDPSYDSIAGMQVWGQGTTVTVSS VL: DIQLTQSPSSLSASVGDRVTITCRASQSISSYLNWYQQKPGKAPKLLIYAASNLQSGVPSRFSGSGSGTDFTLTISSLQPEDFATYYCQQSFDWPLTFGGGTKVEIK

The next lines start with the binder.

Row | Binder | IC50, endogenous hLTBP assay (CAGA12 luciferase) [1] | IC50, mLTBP1 assay (CAGA12 luciferase) [2] [nM] | Kd [3] [nM] | koff [3] [s⁻¹] | kon [3] [M⁻¹ s⁻¹] | Kd [4] [nM] | koff [4] [s⁻¹] | kon [4] [M⁻¹ s⁻¹] | Kd [5] [nM] | Kd [6] [nM] | Kd [7] [nM] | Kd [8] [nM] | IC50, endogenous hLTBP assay (CAGA12 luciferase) [9] [nM] | IC50, mLTBP1 assay (CAGA12 luciferase) [10] [nM] | binding result [11] | IC50, endogenous hLTBP assay (CAGA12 luciferase) [12] [nM] | IC50, mLTBP1 assay (CAGA12 luciferase) [13] [nM]
5 | SR-AB31 (antibody, IgG1, V domains shown, Cycle 3, lineage SR-AB22) VH: QVQLVESGGGVVQPGRSLRLSCAASGFTFRSYVMHWVRQAPGKGLEWVAVISHEGSLKYYADSVKGRFTISRDNSKNTLYLQMNSLRAEDTAVYYCAVPRIAARRGGFGYWGQGTLVTVSS VL: NFMLTQPHSVSESPGKTVTISCTRSSGNIDNNYVQWYQQRPGSSPTTVIYEDNQRPSGVPDRFSGSIDSSSNSASLTISGLKTEDEADYYCQSYDFNNQGVVFGGGTKLTVL | 1.26 nM and 1.56 nM | 0.431 | 0.412 | 9.89e-05 | 240000 | 0.221 | 6.81e-05 | 308000 | 0.682 | 0.589 | 11.2 | 11.2 | – | – | – | – | –
6 | SR-AB44 (antibody, IgG1, V domains shown, Cycle 3, lineage SR-AB23) VH: QVQLVESGGGVVQPGRSLRLSCAASGFTFRSYVMHWVRQAPGKGLEWVAVISHEGSLKYYADSVKGRFTISRDNSKNTLYLQMNSLRAEDTAVYYCARPRIAARRGGFGYWGQGTLVTVSS VL: NFMLTQPHSVSESPGKTVTISCTRSHGNIDDNYVQWYQQRPGSSPTTVIYEDNVRPSGVPDRFSGSIDSSSNSASLTISGLKTEDEADYYCQSYDSDNQLVVFGGGTKLTVL | – | – | 0.214 | 6e-05 | 280000 | 0.146 | 6e-05 | 410000 | 0.21 | 0.407 | 212 | 212 | 1.51 | 0.3 | – | – | –
7 | SR-AB39 (antibody, IgG1, V domains shown, Cycle 3, lineage SR-AB22) VH: QVQLVESGGGVVQPGRSLRLSCAASGFTFRSYVMHWVRQAPGKGLEWVAVISHEGSLKYYADSVKGRFTISRDNSKNTLYLQMNSLRAEDTAVYYCAVPRIAARRGGFGYWGQGTLVTVSS VL: NFMLTQPHSVSESPGKTVTISCTRSSGLIDDNYVQWYQQRPGSSPTTVIYEDAQRPSGVPDRFSGSIDSSSNSASLTISGLKTEDEADYYCQSYDHDEQGVVFGGGTKLTVL | 1.01 nM | 0.479 | 0.205 | 6e-05 | 292000 | 0.136 | 6e-05 | 441000 | 0.232 | 0.342 | 389 | 389 | – | – | – | – | –
8 | SR-AB41 (antibody, IgG1, V domains shown, Cycle 3, lineage SR-AB23) VH: QVQLVESGGGVVQPGRSLRLSCAASGFTFRSYVMHWVRQAPGKGLEWVAVISHEGSLKYYADSVKGRFTISRDNSKNTLYLQMNSLRAEDTAVYYCARPRIAARRGGFGYWGQGTLVTVSS VL: NFMLTQPHSVSESPGKTVTISCTRSSGNIDNNYVQWYQQRPGSSPTTVIYEDNQRPSGVPDRFSGSIDSSSNSASLTISGLKTEDEADYYCQSYDYDNQAVVFGGGTKLTVL | – | – | 0.296 | 6e-05 | 203000 | 0.235 | 6e-05 | 255000 | 0.404 | 0.717 | 764 | 764 | 1.54 | 0.409 | – | – | –
9 | SR-AB37 (antibody, IgG1, V domains shown, Cycle 3, lineage SR-AB22) VH: QVQLVESGGGVVQPGRSLRLSCAASGFTFRSYVMHWVRQAPGKGLEWVAVISHEGSLKYYADSVKGRFTISRDNSKNTLYLQMNSLRAEDTAVYYCAVPRIAARRGGFGYWGQGTLVTVSS VL: NFMLTQPHSVSESPGKTVTISCTRSSGLIDDNYVQWYQQRPGSSPTTVIYEDNQRPSGVPDRFSGSIDSSSNSASLTISGLKTEDEADYYCQSYDSDLQRVVFGGGTKLTVL | 1.93 nM | 0.543 | 0.328 | 0.000118 | 360000 | 0.139 | 7.58e-05 | 545000 | 0.384 | 0.325 | 36.1 | 36.1 | – | – | – | – | –
10 | SR-AB40 (antibody, IgG1, V domains shown, Cycle 3, lineage SR-AB23) VH: QVQLVESGGGVVQPGRSLRLSCAASGFTFRSYVMHWVRQAPGKGLEWVAVISHEGSLKYYADSVKGRFTISRDNSKNTLYLQMNSLRAEDTAVYYCARPRIAARRGGFGYWGQGTLVTVSS VL: NFMLTQPHSVSESPGKTVTISCTRSSGNIDNNYVQWYQQRPGSSPTTVIYEDNQRPSGVPDRFSGSIDSSSNSASLTISGLKTEDEADYYCQSYDYSNQGVVFGGGTKLTVL | – | – | 0.401 | 6e-05 | 150000 | 0.333 | 6.07e-05 | 182000 | 1.08 | 1.16 | – | – | 2.1 | 0.333 | no binding (tested: 200 nM) | – | –
